Laboratory results from paper PMC2720046 (Science (New York, N.Y.), 2008).
Residue numbers refer to the chain shown, from its start. Names and notes keep the numbering of the source. Values belong to the molecule of their own block, whether it stands above or below them.

How the values were obtained:
CEP55-EABR [1] = test: Analytical ultracentrifugation of CEP55-EABR to peptide mixtures; type: binding; details: TSG101 peptide added to preformed 2:1 CEP55:ALIX peptide complex
CEP55-EABR [2] = type: binding; details: pull-down by GST-ALIX fragment with TSG101 peptide competitor
[3] = molecular target: T1, CEP55-EABR (residues 160−217) (Homo sapiens, UniProt Q53EZ4); test: ITC titration of peptide into CEP55-EABR solution; type: binding; details: compared with ALIX peptide
T1 sequence (Q53EZ4 160-217): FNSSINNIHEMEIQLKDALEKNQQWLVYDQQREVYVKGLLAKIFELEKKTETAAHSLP

ALIX 797-809 = molecular target: T2, ALIX 797-809 (Homo sapiens, UniProt Q8WUM4); test: ITC
T2 chain: QAQGPPYPTYPGY

TSG101 154-166 = molecular target: T3, TSG101 154-166 (Homo sapiens, UniProt Q99816); test: ITC
T3 chain: QATGPPNTSYMPG

midbodies in HeLa cells = test: Midbody localization of wild-type and mutant GFP-ALIX expressed in HeLa cells; type: cell-based; details: full-length GFP-tagged ALIX, α−tubulin staining

Molecule: TSG101 peptide: related TSG101 peptide (residues 154 to 166) (QATGPPNTSYMPG; UniProt Q99816 154-166, looked up, fragment)
competition with ALIX peptide for CEP55 site (CEP55-EABR [1]): a peak corresponding to the equivalent amount of uncomplexed peptide is formed, suggesting that TSG101 and ALIX compete for the same site
competition for CEP55-EABR binding site (CEP55-EABR [2]): the two peptides interact with the same site
affinity relative to ALIX peptide [3]: essentially the same affinity and stoichiometry

Kd (ALIX 797-809): 1000 nM
Kd (TSG101 154-166): ~1000 nM
B1: CEP55 160-217 (protein)
chain: T1 sequence (Q53EZ4 160-217)

B2: ALIX^Y806A: full-length ALIX mutant tagged with GFP (protein, UniProt Q8WUM4 1-868, looked up, variant Y806A)
chain: MATFISVQLKKTSEVDLAKPLVKFIQQTYPSGGEEQAQYCRAAEELSKLRRAAVGRPLDKHEGALETLLRYYDQICSIEPKFPFSENQICLTFTWKDAFDKGSLFGGSVKLALASLGYEKSCVLFNCAALASQIAAEQNLDNDEGLKIAAKHYQFASGAFLHIKETVLSALSREPTVDISPDTVGTLSLIMLAQAQEVFFLKATRDKMKDAIIAKLANQAADYFGDAFKQCQYKDTLPKEVFPVLAAKHCIMQANAEYHQSILAKQQKKFGEEIARLQHAAELIKTVASRYDEYVNVKDFSDKINRALAAAKKDNDFIYHDRVPDLKDLDPIGKATLVKSTPVNVPISQKFTDLFEKMVPVSVQQSLAAYNQRKADLVNRSIAQMREATTLANGVLASLNLPAAIEDVSGDTVPQSILTKSRSVIEQGGIQTVDQLIKELPELLQRNREILDESLRLLDEEEATDNDLRAKFKERWQRTPSNELYKPLRAEGTNFRTVLDKAVQADGQVKECYQSHRDTIVLLCKPEPELNAAIPSANPAKTMQGSEVVNVLKSLLSNLDEVKKEREGLENDLKSVNFDMTSKFLTALAQDGVINEEALSVTELDRVYGGLTTKVQESLKKQEGLLKNIQVSHQEFSKMKQSNNEANLREEVLKNLATAYDNFVELVANLKEGTKFYNELTEILVRFQNKCSDIVFARKTERDELLKDLQQSIAREPSAPSIPTPAYQSSPAGGHAPTPPTPAPRTMPPTKPQPPARPPPPVLPANRAPSATAPSPVGAGTAAPAPSQTPGSAPPPQAQGPPYPTAPGYPGYCQMPMPMGYNPYAYGQYNMPYPPVYHQSPGQAPYPGPQQPSYPFPQPPQQSYYPQQ
modifications: full-length GFP fusion
midbody localization of GFP-ALIX (midbodies in HeLa cells): no midbody localization above background

B3: wild-type ALIX: full-length wild-type ALIX tagged with GFP (protein, UniProt Q8WUM4 1-868, looked up)
chain: B2 chain with A806Y
modifications: full-length GFP fusion
midbody localization of GFP-ALIX (midbodies in HeLa cells): strongly localized to midbodies
